Source: paper PMC6882843

Biological target: ToxT from Vibrio cholerae serogroup O42 strain SCE-256, wild type, purified (Vibrio cholerae serogroup O42 strain SCE-256) (UniProt Q7BGC0)
Test: SEC-SAXS

Substance: ToxT from Vibrio cholerae serogroup O42 strain SCE-256, wild type, purified (from UniProt Q7BGC0 1-276) (natural protein)
- stoichiometry N: 2
